Results on one substance are retold here after publication PMC7592216.

The subject of this data set is eIF4E (eukaryotic translation initiation factor 4E, cap-binding protein) (wheat). The data set is described as follows: EMSA. The settings on record: 10 mM HEPES pH 7.5, 20 mM KCl, 1 mM DTT, 3 mM MgCl2, 0.1 ug/ul yeast tRNA, 1 ug/ul BSA, 1 U/ul RNaseOUT, 20 mM Tris-HCl/10% glycerol; 25 min on ice; 10 fmol …. (Mobility shift assays separate free from complexed probe on a gel.)

In general, Kd refers to the equilibrium constant for the complex coming apart. Read a low Kd as tighter binding. On to MTE (MCMV 3' CITE), uncapped, for which the dissociation constant (Kd) was 80 nM.
